For this data set, the target named is T1, recombinant NRF-1 (rNRF-1) (human, UniProt Q16656 1-503).
T1 sequence: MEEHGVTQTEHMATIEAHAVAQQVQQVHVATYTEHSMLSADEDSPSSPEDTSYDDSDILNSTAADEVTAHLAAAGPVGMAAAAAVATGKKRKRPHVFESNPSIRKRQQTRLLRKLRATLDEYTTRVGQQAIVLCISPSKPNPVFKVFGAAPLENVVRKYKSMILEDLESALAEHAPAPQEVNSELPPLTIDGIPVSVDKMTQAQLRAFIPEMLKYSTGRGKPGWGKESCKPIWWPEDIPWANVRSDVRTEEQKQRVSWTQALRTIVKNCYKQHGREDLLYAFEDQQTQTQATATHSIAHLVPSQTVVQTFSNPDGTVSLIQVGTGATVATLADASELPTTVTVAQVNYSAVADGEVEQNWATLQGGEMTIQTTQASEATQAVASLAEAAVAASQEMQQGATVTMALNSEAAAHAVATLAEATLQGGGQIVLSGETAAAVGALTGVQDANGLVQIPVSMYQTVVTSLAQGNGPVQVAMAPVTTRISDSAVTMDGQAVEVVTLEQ
Description: EMSA; 0.03-5 ug protein, concentration-dependent; 25 mM HEPES pH 7.6, 5 mM MgCl2, 34 mM KCl, 50 ug/mL poly dI:dC, 0.5 mg/mL BSA, on ice 15 min; 6% acrylamide 0.25x TBE gel. As to conditions: tags: N-terminal MBP fusion (pMAL-c2), chain copies: 2, label: 32P. Background: In EMSA bound probe runs differently from free probe, usually more slowly.

B1: Gb-270 (dsDNA)
DNA 1: CTGCCGCGCAGGCGCCGGGC
DNA 2: GCCCGGCGCCTGCGCGGCAG
For the molecule B1, the binding result is on record as “binds”.
